Reference: paper PMC4369792

Key:
[1] = biological target: fibronectin from human plasma (human); assay: single-molecule force spectroscopy
[2] = biological target: salivary agglutinin (SAG) glycoprotein complex (UniProt Q9UGM3); assay: single-molecule force spectroscopy
[3] = biological target: salivary agglutinin (SAG) glycoprotein complex (UniProt Q9UGM3); assay: single-cell force spectroscopy

Sequence of UniProt Q9UGM3 (Q9UGM3 whole entry, looked up, one chain of several): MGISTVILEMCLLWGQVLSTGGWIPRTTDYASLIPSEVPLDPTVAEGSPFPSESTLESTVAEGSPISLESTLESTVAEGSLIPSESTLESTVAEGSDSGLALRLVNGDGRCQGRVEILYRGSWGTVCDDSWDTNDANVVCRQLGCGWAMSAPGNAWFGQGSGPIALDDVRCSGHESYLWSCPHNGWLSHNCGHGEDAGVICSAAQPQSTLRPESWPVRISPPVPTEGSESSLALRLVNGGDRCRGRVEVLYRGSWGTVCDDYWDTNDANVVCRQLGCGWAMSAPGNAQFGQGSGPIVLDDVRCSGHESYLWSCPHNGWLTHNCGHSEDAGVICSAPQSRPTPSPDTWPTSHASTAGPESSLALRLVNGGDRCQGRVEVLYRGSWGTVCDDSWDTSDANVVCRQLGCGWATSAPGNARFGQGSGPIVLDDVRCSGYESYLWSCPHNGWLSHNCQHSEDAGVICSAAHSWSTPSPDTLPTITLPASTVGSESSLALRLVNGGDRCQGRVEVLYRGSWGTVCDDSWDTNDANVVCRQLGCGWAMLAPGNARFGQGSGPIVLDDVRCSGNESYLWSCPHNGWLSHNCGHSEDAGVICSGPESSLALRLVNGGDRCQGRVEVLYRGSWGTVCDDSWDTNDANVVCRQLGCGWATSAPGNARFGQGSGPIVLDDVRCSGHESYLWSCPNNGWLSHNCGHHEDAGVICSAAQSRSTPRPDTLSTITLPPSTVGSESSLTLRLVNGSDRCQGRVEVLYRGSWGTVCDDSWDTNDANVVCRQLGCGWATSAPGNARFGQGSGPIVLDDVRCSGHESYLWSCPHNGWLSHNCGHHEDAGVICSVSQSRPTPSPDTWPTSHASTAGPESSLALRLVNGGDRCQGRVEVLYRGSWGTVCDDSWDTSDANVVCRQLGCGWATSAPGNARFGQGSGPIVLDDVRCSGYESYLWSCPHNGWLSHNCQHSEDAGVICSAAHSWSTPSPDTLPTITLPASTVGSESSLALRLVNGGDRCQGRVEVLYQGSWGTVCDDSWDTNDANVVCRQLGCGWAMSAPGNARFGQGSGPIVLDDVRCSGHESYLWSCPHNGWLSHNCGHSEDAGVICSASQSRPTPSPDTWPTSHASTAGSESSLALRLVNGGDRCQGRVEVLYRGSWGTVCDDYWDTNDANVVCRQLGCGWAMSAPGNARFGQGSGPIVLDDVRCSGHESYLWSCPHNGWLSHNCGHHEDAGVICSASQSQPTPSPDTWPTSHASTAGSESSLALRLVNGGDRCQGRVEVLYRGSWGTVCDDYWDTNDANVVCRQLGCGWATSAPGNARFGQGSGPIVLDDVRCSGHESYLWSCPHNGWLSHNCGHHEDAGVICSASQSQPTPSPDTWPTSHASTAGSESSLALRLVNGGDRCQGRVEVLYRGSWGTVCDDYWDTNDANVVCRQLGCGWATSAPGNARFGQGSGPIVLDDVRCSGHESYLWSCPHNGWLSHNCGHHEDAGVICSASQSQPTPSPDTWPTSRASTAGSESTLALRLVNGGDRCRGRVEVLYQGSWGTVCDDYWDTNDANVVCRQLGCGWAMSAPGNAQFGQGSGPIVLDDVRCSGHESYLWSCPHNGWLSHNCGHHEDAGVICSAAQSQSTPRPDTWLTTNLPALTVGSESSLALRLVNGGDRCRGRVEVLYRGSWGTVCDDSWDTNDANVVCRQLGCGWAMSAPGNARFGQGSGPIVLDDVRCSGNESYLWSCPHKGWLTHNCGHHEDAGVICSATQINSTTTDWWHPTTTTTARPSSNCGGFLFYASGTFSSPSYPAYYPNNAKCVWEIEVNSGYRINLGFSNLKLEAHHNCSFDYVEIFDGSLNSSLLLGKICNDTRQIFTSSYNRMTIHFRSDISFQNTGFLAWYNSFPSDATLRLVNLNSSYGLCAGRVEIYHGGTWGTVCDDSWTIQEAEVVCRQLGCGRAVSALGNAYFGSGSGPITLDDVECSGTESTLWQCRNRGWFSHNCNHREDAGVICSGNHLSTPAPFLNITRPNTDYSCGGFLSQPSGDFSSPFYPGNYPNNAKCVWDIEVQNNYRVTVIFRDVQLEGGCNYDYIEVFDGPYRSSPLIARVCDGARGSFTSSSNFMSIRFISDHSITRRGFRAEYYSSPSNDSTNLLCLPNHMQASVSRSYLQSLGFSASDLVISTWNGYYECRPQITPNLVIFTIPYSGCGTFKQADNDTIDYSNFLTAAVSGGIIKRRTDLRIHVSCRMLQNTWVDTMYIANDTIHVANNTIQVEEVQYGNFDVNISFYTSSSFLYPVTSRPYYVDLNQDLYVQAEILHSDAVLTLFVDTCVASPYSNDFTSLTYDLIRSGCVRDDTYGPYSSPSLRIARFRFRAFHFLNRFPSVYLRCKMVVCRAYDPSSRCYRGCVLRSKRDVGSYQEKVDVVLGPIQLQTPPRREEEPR

## P1 globular head fragment (A3VP1) (domain or fragment)
[1]
  binding frequency: 49%

## full-length P1 adhesin of Streptococcus mutans (from UniProt P23504 39-1532) (natural protein)
[2]
  most probable adhesion force: 57 pN
[1]
  mean adhesion force: 46 pN

## cell surface-localized P1 on living Streptococcus mutans NG8 cells (from UniProt P23504 39-1532) (natural protein)
[3]
  adhesion force: 100 to 1500 pN
